From publication PMC5384750 (PLoS ONE, 2017)
Several values for one entry are separate records, joined by “and”; a condition that tells them apart may be missing. Equal entries are not always repeated.

Columns and labels:
recombinant IDE (rIDE) = biological target: T1, recombinant IDE (rIDE) (Rattus norvegicus, UniProt P35559); assay: Inhibition of rIDE-mediated degradation of sp6BY; format: biochemical; details: 10 ng rIDE, 10 ng sp6BY, 30 min, 37°C; TPEN 1 mM, NEM 1 mM, insulin 100 μg/ml
T1 construct: purchased Calbiochem
Method: Fig 6 IDE is sufficient and required for the in vitro degradation of sp6 and vp6. (A) 10 ng sp6BY were incubated with 5 μg S10 extract from HeLa cells, either untransfected or transfected with control or IDE-specific siRNA, for 0, 10, 30 or 90 min at 37°C. (B) sp6BY was detected by fluorescence emission and quantified. (C) VLP lysates from HEK293T cells were incubated with S10 from siRNA treated cells described in A. Viral proteins were detected as described in Fig 1. (D) Western blot analyses of the S10 extract used in A and C. The membrane was stained with antibodies specific for IDE, HSP70, and β-actin. […] (F) VLP lysates were incubated with 10 ng rIDE for 30 min.
(§1) Typically 5 μg S10 were incubated with inhibitor or buffer and 20–100 ng sp6 at 37°C for 30 min. Reactions were stopped by addition of sample buffer and incubation at 95°C for 5 min. Remaining p6 was detected by Western blotting using an anti-p6 rabbit antiserum. Alternatively, 10 ng of BODIPY FL-labeled sp6 (sp6BY) were used as substrate and detected directly in the polyacrylamide gel by fluorescence scanning. In some experiments the amount of p6 was densitometrically quantified with the software AIDA (Raytest). For the in vitro degradation of amyloid-β 10 ng of Aβ-FITC (abcam) were used analogously to sp6BY. For the in vitro degradation of viral p6, VLPs were pelleted and lysed in IDE enzyme buffer (150 mM NaCl, 50 mM Tris pH 7.4, 0.5% (v/v) Triton X-100). The p6 content was estimated by Western blotting using a dilution series of sp6 with known concentrations. Equivalents of 15 ng were used for digestion experiments and subsequently detected by Western blotting. Experiments carried out with recombinant IDE (Calbiochem) were performed in IDE enzyme buffer. Recombinant FITC-labeled insulin was purchased from Sigma.

[1] = tested on: X4-tropic field isolate HIV-1 BK132; assay: HIV-1 replication capacity in activated PBMCs (RT activity, AUC); format: cell-based; details: 50 μg/ml insulin or 10 μM 6bK, permanent treatment; PHA-IL2-stimulated PBMCs from 3 different donors (S6 Fig)
Method: For infection, PBMCs were isolated from buffy coats of several blood donors and stimulated with PHA and IL-2 for three days. 1×10^6 PBMCs were incubated overnight with virus preparations equivalent to 0.031 ng of p24, and cell culture supernatant was collected every second or third day post infection (dpi). […] Virus replication was assessed by quantification of the virus-associated RT activity by [^32P]-TTP incorporation, using an oligo(dT)-poly(A) template as described elsewhere. In case of replications with inhibitor treatment, cell viability was determined in parallel by WST-1 assay (Roche) according to the manufacturer’s instructions on the last day of replication. For estimation of the multiplicity of infection (MOI), infectious units of virus stocks were determined by TCID50 end point titration in activated PBMCs. […] The MOI was calculated as the ratio of infectious units per target cells and was ~10^−4 in case of 0.031 ng p24 of input virus.
To determine the replication capacity of HIV-1 following infection with the indicated HIV-1 variants, the respective replication profiles were depicted as diagram (y-axis: RT activity; x-axis: dpi) and the area under curve was calculated and defined as the corresponding replication capacity of the HIV-1 variants. […] Viability of treated cells was assessed on the last day of replication by the water-soluble tetrazolium method. […]

[2] = biological target: T2, insulin-degrading enzyme (IDE) (Homo sapiens, UniProt P14735); assay: Inhibition of Aβ-FITC degradation in S10 extract; format: biochemical; details: titration; 10 ng Aβ-FITC, 5 μg S10, 45 min, 37°C; fluorescence
T2 construct: endogenous in cells; host or cells: HeLa cells (cytosolic S10 extract)
Method: as §1, with “Typically 5 μg S10 were incubated with inhibitor or buffer and 20–100 ng sp6 at 37°C for 30 min.” left out
Supplementary file pone.0174254.s003.tif: S3 Fig p6 competes with the in vitro degradation of Aβ. […] Aβ-FITC was detected by measurement of fluorescence excitation. The band marked with * represents Aβ-oligomers and has been described earlier. (B) Band intensities were quantified for four independent experiments and values represent the arithmetic mean ± SD. […]

purified mammalian IDE = details: purified mammalian IDE; cited from earlier work
[3] = tested on: X4-tropic HIV-1NL4-3 3xPTAPPA mutant; assay: HIV-1 replication capacity in activated PBMCs (RT activity, AUC); format: cell-based; details: 50 μg/ml insulin or 10 μM 6bK, permanent treatment; PHA-IL2-stimulated PBMCs from 3 different donors
Method: (§2) For infection, PBMCs were isolated from buffy coats of several blood donors and stimulated with PHA and IL-2 for three days. 1×10^6 PBMCs were incubated overnight with virus preparations equivalent to 0.031 ng of p24, and cell culture supernatant was collected every second or third day post infection (dpi). […] Virus replication was assessed by quantification of the virus-associated RT activity by [^32P]-TTP incorporation, using an oligo(dT)-poly(A) template as described elsewhere. In case of replications with inhibitor treatment, cell viability was determined in parallel by WST-1 assay (Roche) according to the manufacturer’s instructions on the last day of replication. For estimation of the multiplicity of infection (MOI), infectious units of virus stocks were determined by TCID50 end point titration in activated PBMCs. The number of HIV-1 target cells was estimated to be 50% of total PBMCs as reported in [93]. The MOI was calculated as the ratio of infectious units per target cells and was ~10^−4 in case of 0.031 ng p24 of input virus.
(§3) To determine the replication capacity of HIV-1 following infection with the indicated HIV-1 variants, the respective replication profiles were depicted as diagram (y-axis: RT activity; x-axis: dpi) and the area under curve was calculated and defined as the corresponding replication capacity of the HIV-1 variants. In every experiment the replication capacity of the untreated wt was set to 100% and compared with the indicated variants. Viability of treated cells was assessed on the last day of replication by the water-soluble tetrazolium method. All conditions were not found to diminish cell viability.

X4-tropic HIV-1NL4-3 wt = assay: as above; format: cell-based; details: continuous treatment with 50 μg/ml insulin; PHA-IL2-stimulated PBMCs from 3 different donors; MOI ~10^−4; untreated wt = 100%
Method: as §2, §3

R5-tropic HIV-1NL4-3 = assay: as above; format: cell-based; details: 50 μg/ml insulin or 10 μM 6bK, permanent treatment; PHA-IL2-stimulated PBMCs from 3 different donors
Method: as §2, §3

[4] = biological target: IDE (S10 extract or rIDE) (Homo sapiens, UniProt P14735); format: in vitro ADME; details: 30 ng vp6, 5 μg S10 extract, up to 60 min; Western blot densitometry; at least 3 independent experiments
Method: Fig 9 Multiplication of PTAPPA-motifs stabilizes p6. 20 ng of sp6 or 30 ng of vp6 were incubated either with 5 μg S10 extract (A/B/C) or 2 ng of rIDE (D) for up to 60 min. Degradation efficiency was quantified via densitometric analyses of Western blots. Values represent the arithmetic mean ± SD of at least 3 independent experiments for each setting.
as §1, with “Experiments carried out with recombinant IDE (Calbiochem) were performed in IDE enzyme buffer. Recombinant FITC-labeled insulin was purchased from Sigma.” left out

T1 sequence (P35559 whole entry): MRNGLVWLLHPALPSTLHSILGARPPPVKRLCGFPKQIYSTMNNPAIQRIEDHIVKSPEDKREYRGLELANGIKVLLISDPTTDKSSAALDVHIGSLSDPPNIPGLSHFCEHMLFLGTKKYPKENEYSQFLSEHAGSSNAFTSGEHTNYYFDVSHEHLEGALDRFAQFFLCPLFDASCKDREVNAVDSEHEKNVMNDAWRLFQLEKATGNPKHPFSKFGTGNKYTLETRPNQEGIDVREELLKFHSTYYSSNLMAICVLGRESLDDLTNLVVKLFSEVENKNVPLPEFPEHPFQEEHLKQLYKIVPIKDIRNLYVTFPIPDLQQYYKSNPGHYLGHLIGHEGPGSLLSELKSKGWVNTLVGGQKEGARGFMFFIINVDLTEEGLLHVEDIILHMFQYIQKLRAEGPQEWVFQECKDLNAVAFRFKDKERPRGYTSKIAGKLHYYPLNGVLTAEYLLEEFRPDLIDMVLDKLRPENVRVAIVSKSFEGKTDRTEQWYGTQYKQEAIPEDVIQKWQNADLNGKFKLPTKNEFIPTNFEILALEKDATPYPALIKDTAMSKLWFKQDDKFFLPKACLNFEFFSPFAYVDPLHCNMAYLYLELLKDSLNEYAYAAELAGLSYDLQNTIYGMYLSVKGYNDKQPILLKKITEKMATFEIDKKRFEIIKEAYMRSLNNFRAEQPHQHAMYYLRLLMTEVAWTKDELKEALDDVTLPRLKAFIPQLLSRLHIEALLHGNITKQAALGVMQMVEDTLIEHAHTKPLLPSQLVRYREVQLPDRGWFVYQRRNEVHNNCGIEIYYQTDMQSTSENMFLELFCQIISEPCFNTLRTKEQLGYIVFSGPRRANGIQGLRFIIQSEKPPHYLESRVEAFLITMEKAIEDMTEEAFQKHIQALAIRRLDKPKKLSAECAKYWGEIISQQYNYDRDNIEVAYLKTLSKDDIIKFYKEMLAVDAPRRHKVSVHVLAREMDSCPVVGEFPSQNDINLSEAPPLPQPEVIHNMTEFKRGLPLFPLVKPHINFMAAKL

Row | Molecule | stabilization of sp6 in the presence of rIDE (recombinant IDE (rIDE)) | effect on replication capacity of HIV-1 BK132 compared with HIV-1NL4-3 [1] | effect on degradation of Aβ-FITC [2] | Km (purified mammalian IDE) | kcat (purified mammalian IDE) | effect on replication capacity of the IDE-insensitive 3xPTAPPA mutant [3] | reduction of HIV-1 replication (replication capacity, AUC of RT activity) (X4-tropic HIV-1NL4-3 wt) | effect on replication capacity of R5-tropic HIV-1 (wt and 3xPTAPPA) (R5-tropic HIV-1NL4-3) | degradation kinetics of vp6 mutants in S10 [4]
1 | insulin | stabilized sp6 | same impact | resulted in a stabilization of Aβ-FITC | 66 nM | 1.5 min⁻¹ | insensitive to insulin treatment | ~ 50% and 50% | insensitive to exogenous insulin | –
2 | CC[C@H](C)[C@H](NC(=O)[C@@H]1CCCN1C(=O)[C@H](CCC(=O)O)NC(=O)[C@H](CCC(N)=O)NC(=O)[C@H](CCCCN)NC(=O)[C@H](CCC(N)=O)NC(=O)[C@H](CO)NC(=O)[C@@H]1CCCN1C(=O)[C@@H](NC(=O)[C@@H](NC(=O)[C@@H](NC(=O)[C@H](CCC(=O)O)NC(=O)[C@H](CCC(=O)O)NC(=O)CNC(=O)[C@H](Cc1ccccc1)NC(=O)[C@H](CCCNC(=N)N)NC(=O)[C@H](Cc1ccccc1)NC(=O)[C@H](CO)NC(=O)[C@H](CCC(=O)O)NC(=O)[C@H](C)NC(=O)[C@@H]1CCCN1C(=O)[C@@H]1CCCN1C(=O)[C@H](C)NC(=O)[C@@H](NC(=O)[C@H](CC(C)C)NC(=O)[C@H](C)NC(=O)[C@@H]1CCCN1C(=O)[C@@H]1CCCN1C(=O)[C@H](C)NC(=O)[C@@H](NC(=O)[C@@H]1CCCN1C(=O)[C@H](CCC(=O)O)NC(=O)[C@@H]1CCCN1C(=O)[C@H](CCCNC(=N)N)NC(=O)[C@H](CO)NC(=O)[C@H](CCC(N)=O)NC(=O)[C@@H](N)CC(C)C)[C@@H](C)O)[C@@H](C)O)[C@@H](C)O)[C@@H](C)O)[C@@H](C)O)C(=O)N[C@@H](CC(=O)O)C(=O)N[C@@H](CCCCN)C(=O)N[C@@H](CCC(=O)O)C(=O)N[C@@H](CC(C)C)C(=O)N[C@@H](Cc1ccc(O)cc1)C(=O)N1CCC[C@H]1C(=O)N[C@@H](CC(C)C)C(=O)N[C@@H](C)C(=O)N[C@@H](CO)C(=O)N[C@@H](CC(C)C)C(=O)N[C@@H](CCCNC(=N)N)C(=O)N[C@@H](CO)C(=O)N[C@@H](CC(C)C)C(=O)N[C@@H](Cc1ccccc1)C(=O)NCC(=O)N[C@@H](CO)C(=O)N[C@@H](CC(=O)O)C(=O)N1CCC[C@H]1C(=O)N[C@@H](CO)C(=O)N[C@@H](CO)C(=O)N[C@@H](CCC(N)=O)C(=O)O [PL] | – | – | – | – | – | – | – | – | comparable to their 2x and 3x counterparts
